Measured values taken from publication PMC11331516.
pKd: −log10 of the molar value.

Tests used:
Bovine κ-casein (bovine) [1] = assay: PFG NMR diffusion; κ-casein 20% (w/v) in 100% D2O, 298 K; MODSTE pulse sequence, td 50-800 ms; gel-like network
Bovine κ-casein (bovine) [2] = assay: PFG NMR diffusion; κ-casein 0.1 to 10% (w/v) in 100% D2O, pH 7.0, 298 K; STE and MODSTE pulse sequences, td 50-800 ms; fresh samples; below the threshold of gel formation
[3] = molecular target: Bovine κ-casein labelled with EDANS-C2-maleimide (donor) or DABCYL-C2-maleimide (acceptor) (bovine); assay: FRET or BRET; as the FRET titration but with 5 mM sodium phosphate buffer added; data not shown
[4] = molecular target: Bovine κ-casein labelled with EDANS-C2-maleimide (donor) or DABCYL-C2-maleimide (acceptor) (bovine); assay: FRET or BRET; time-resolved FRET titration; donor (EDANS) κ-casein constant at 0.01% (5 μM), acceptor (DABCYL) κ-casein 0.01-0.38% (5-200 μM); in H2O, 293 K; indefinite isodesmic association, adding a monomer to an associate

fold decrease of the equilibrium association constant with 5 mM sodium phosphate buffer against the aqueous solution [3] | pKd [4] | Substance | lifetime of molecules within the gel network (20% solution) (Bovine κ-casein (bovine) [1]) | percent of molecules in the gel network (20% solution) (Bovine κ-casein (bovine) [1]) | fraction of molecules within the associate, pmin(0) (0.5% solution) (Bovine κ-casein (bovine) [2]) | lifetime of molecules within the associate (0.5% solution) (Bovine κ-casein (bovine) [2]) | stoichiometry N (Bovine κ-casein (bovine) [2])
– | – | Bovine κ-casein (natural protein) | 0.98 s | 34% | 0.23 | 0.53 s | < 31 molecules
3 fold | 5.02 | Bovine κ-casein labelled with EDANS-C2-maleimide (donor) or DABCYL-C2-maleimide (acceptor) (natural protein) | – | – | – | – | –
